These are literature values, as cited in PMC6293969.

pKd: −log10 of the molar value.

Broadly, the pKd is the Kd on a negative log10 scale, so that one unit is a factor of ten.

The target of data set [1] is CLK1 (Homo sapiens) (UniProt P49759).
The target in data set [2] is SRSF1 (Homo sapiens) (UniProt Q07955).
Chain of UniProt Q07955 (Q07955 2-248): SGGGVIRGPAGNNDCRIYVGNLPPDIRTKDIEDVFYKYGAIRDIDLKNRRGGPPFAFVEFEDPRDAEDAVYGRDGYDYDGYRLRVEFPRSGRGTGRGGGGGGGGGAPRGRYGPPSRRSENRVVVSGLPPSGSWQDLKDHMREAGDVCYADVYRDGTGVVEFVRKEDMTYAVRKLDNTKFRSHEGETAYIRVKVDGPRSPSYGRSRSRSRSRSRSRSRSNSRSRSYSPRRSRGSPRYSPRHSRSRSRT

Chain of UniProt P49759 (P49759 whole entry): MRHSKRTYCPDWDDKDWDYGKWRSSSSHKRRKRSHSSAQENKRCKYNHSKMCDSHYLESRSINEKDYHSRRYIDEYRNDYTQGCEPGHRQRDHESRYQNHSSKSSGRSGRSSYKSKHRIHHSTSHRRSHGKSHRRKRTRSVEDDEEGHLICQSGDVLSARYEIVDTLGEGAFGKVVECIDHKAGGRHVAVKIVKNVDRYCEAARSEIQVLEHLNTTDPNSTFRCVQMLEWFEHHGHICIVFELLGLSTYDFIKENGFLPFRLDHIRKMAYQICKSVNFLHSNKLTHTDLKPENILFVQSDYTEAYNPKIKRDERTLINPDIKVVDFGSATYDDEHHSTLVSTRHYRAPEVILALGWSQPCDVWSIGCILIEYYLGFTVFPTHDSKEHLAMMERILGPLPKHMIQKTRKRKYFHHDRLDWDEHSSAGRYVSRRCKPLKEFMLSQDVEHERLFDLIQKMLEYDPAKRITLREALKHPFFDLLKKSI

For the substance SRPK1 (from UniProt Q96SB4), the figures for the pKd in data set [1] and in data set [2] were 7.70 and 7.00, respectively.
